The RNAGym collection of RNA variant scans (doi:10.1021/acssynbio.7b00057)

B1: Pistol ribozyme (parent)
chain: GGGUCGUUGUUCCAUAAUCGCGUGGAUAUGGCACGCAAGUUUCUACCGGGCACCGUAAAUGUCCGACUGGAGCCGUUCGGGCGGCUAUAAACAGACCUCAGGCCCGAAGCGUGGCGGCACCUGCCGCCGGUGGUAAAAAAGAUCGGAAGAGCACACGUCU

Variants of: B1
Assay: aptazyme ON/OFF ratio, guanine; higher = stronger switching; co-transcriptional cleavage with and without guanine

Variant | aptazyme ON/OFF ratio
GGGUCGCUAGCAUAUAAUCGCGUGGAUAUGGCACGCAAGUUUCUACCGGGCACCGUAAAUGUCCGACUGGAGCCGUUCGGGCGGCUAUAAACAGACCUCAGGCCCGAAGCGUGGCGGCACCUGCCGCCGGUGGUAAAAAAGAUCGGAAGAGCACACGUCU | 1.15
GGGUCGCUAGCAAAUAAUCGCGUGGAUAUGGCACGCAAGUUUCUACCGGGCACCGUAAAUGUCCGACUGGAGCCGUUCGGGCGGCUAUAAACAGACCUCAGGCCCGAAGCGUGGCGGCACCUGCCGCCGGUGGUAAAAAAGAUCGGAAGAGCACACGUCU | 1.2
GGGUCGCUAGCAGAUAAUCGCGUGGAUAUGGCACGCAAGUUUCUACCGGGCACCGUAAAUGUCCGACUGGAGCCGUUCGGGCGGCUAUAAACAGACCUCAGGCCCGAAGCGUGGCGGCACCUGCCGCCGGUGGUAAAAAAGAUCGGAAGAGCACACGUCU | 1.11
GGGUCGCUAGCCUAUAAUCGCGUGGAUAUGGCACGCAAGUUUCUACCGGGCACCGUAAAUGUCCGACUGGAGCCGUUCGGGCGGCUAUAAACAGACCUCAGGCCCGAAGCGUGGCGGCACCUGCCGCCGGUGGUAAAAAAGAUCGGAAGAGCACACGUCU | 1.06
GGGUCGCUAGCCAAUAAUCGCGUGGAUAUGGCACGCAAGUUUCUACCGGGCACCGUAAAUGUCCGACUGGAGCCGUUCGGGCGGCUAUAAACAGACCUCAGGCCCGAAGCGUGGCGGCACCUGCCGCCGGUGGUAAAAAAGAUCGGAAGAGCACACGUCU | 1.24
GGGUCGCUAGCCGAUAAUCGCGUGGAUAUGGCACGCAAGUUUCUACCGGGCACCGUAAAUGUCCGACUGGAGCCGUUCGGGCGGCUAUAAACAGACCUCAGGCCCGAAGCGUGGCGGCACCUGCCGCCGGUGGUAAAAAAGAUCGGAAGAGCACACGUCU | 1.03
GGGUCGCUAGCUCAUAAUCGCGUGGAUAUGGCACGCAAGUUUCUACCGGGCACCGUAAAUGUCCGACUGGAGCCGUUCGGGCGGCUAUAAACAGACCUCAGGCCCGAAGCGUGGCGGCACCUGCCGCCGGUGGUAAAAAAGAUCGGAAGAGCACACGUCU | 1.18
GGGUCGCUAGCACAUAAUCGCGUGGAUAUGGCACGCAAGUUUCUACCGGGCACCGUAAAUGUCCGACUGGAGCCGUUCGGGCGGCUAUAAACAGACCUCAGGCCCGAAGCGUGGCGGCACCUGCCGCCGGUGGUAAAAAAGAUCGGAAGAGCACACGUCU | 1.28
GGGUCGCUAGCGCAUAAUCGCGUGGAUAUGGCACGCAAGUUUCUACCGGGCACCGUAAAUGUCCGACUGGAGCCGUUCGGGCGGCUAUAAACAGACCUCAGGCCCGAAGCGUGGCGGCACCUGCCGCCGGUGGUAAAAAAGAUCGGAAGAGCACACGUCU | 1.32
GGGUCGCUAGGAGAUAAUCGCGUGGAUAUGGCACGCAAGUUUCUACCGGGCACCGUAAAUGUCCGACUGGAGCCGUUCGGGCGGCUAUAAACAGACCUCAGGCCCGAAGCGUGGCGGCACCUGCCGCCGGUGGUAAAAAAGAUCGGAAGAGCACACGUCU | 1.09
GGGUCGCUAGGAUAUAAUCGCGUGGAUAUGGCACGCAAGUUUCUACCGGGCACCGUAAAUGUCCGACUGGAGCCGUUCGGGCGGCUAUAAACAGACCUCAGGCCCGAAGCGUGGCGGCACCUGCCGCCGGUGGUAAAAAAGAUCGGAAGAGCACACGUCU | 1.13
GGGUCGCUAGGAAAUAAUCGCGUGGAUAUGGCACGCAAGUUUCUACCGGGCACCGUAAAUGUCCGACUGGAGCCGUUCGGGCGGCUAUAAACAGACCUCAGGCCCGAAGCGUGGCGGCACCUGCCGCCGGUGGUAAAAAAGAUCGGAAGAGCACACGUCU | 1.17
GGGUCGCUAGCUGAUAAUCGCGUGGAUAUGGCACGCAAGUUUCUACCGGGCACCGUAAAUGUCCGACUGGAGCCGUUCGGGCGGCUAUAAACAGACCUCAGGCCCGAAGCGUGGCGGCACCUGCCGCCGGUGGUAAAAAAGAUCGGAAGAGCACACGUCU | 1.09
GGGUCGCUAGCUUAUAAUCGCGUGGAUAUGGCACGCAAGUUUCUACCGGGCACCGUAAAUGUCCGACUGGAGCCGUUCGGGCGGCUAUAAACAGACCUCAGGCCCGAAGCGUGGCGGCACCUGCCGCCGGUGGUAAAAAAGAUCGGAAGAGCACACGUCU | 1.21
GGGUCGCUAGCUAAUAAUCGCGUGGAUAUGGCACGCAAGUUUCUACCGGGCACCGUAAAUGUCCGACUGGAGCCGUUCGGGCGGCUAUAAACAGACCUCAGGCCCGAAGCGUGGCGGCACCUGCCGCCGGUGGUAAAAAAGAUCGGAAGAGCACACGUCU | 1.2
GGGUCGCUAGGCCAUAAUCGCGUGGAUAUGGCACGCAAGUUUCUACCGGGCACCGUAAAUGUCCGACUGGAGCCGUUCGGGCGGCUAUAAACAGACCUCAGGCCCGAAGCGUGGCGGCACCUGCCGCCGGUGGUAAAAAAGAUCGGAAGAGCACACGUCU | 1.09
GGGUCGCUAGCCCAUAAUCGCGUGGAUAUGGCACGCAAGUUUCUACCGGGCACCGUAAAUGUCCGACUGGAGCCGUUCGGGCGGCUAUAAACAGACCUCAGGCCCGAAGCGUGGCGGCACCUGCCGCCGGUGGUAAAAAAGAUCGGAAGAGCACACGUCU | 1.08
GGGUCGCUAGAUCAUAAUCGCGUGGAUAUGGCACGCAAGUUUCUACCGGGCACCGUAAAUGUCCGACUGGAGCCGUUCGGGCGGCUAUAAACAGACCUCAGGCCCGAAGCGUGGCGGCACCUGCCGCCGGUGGUAAAAAAGAUCGGAAGAGCACACGUCU | 1.05
